Data published in the supplement of paper PMC7877785.
± gives the uncertainty stated by the source.

Test: self-splicing fitness, log relative to wild type (ln ratio); higher = more splicing; Tetrahymena group I intron in knt gene, E. coli kanamycin selection, DiMSum; sequences stand for … in CUCUCU…GGAGGGAAAAGUUAUCAGGCAUGCACCUGGUAGCUAGUCUUUAAACCAAUAGAUUGCAUCGGUUUAAAAGGCAAGACCGUCAAAUUGCGGGAAAGGGGUCAACAGCCGUUCAGUACCAAGUCUCAGGGGAAACUUUGAGAUGGCCUUGCAAAGGGUAUGGUAAUAAGCUGACGGACAUGGUCCUAACCACGCAGCCAAGUCCUAAGUCAACAGAUCUUCUGUUGAUAUGGAUGCAGUUCACAGACUAAAUGUCGGUCGGGGAAGAUGUAUUCUUCUCAUAAGAUAUAGUCGGACCUCUCCUUAAUGGGAGCUAGCGGAUGAAGUGAUGCAACACUGGAGCCGCUGGGAACUAAUUUGUAUGCGAAAGUAUAUUGAUUAGUUUUGGAGUACUCGUGGUCG
Method in brief: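 A randomised library covering all eight P1ex-region intron nucleotides was built with the intron in the knt kanamycin-resistance gene on pET-22b(+) and held in E. coli BL21(DE3). Cells were grown overnight at 37°C or 30°C on LB agar, with or without 25 μg/mL kanamycin, plus 100 μg/mL carbenicillin, 50 μM IPTG and 0.2% rhamnose, and pooled colonies were amplicon-sequenced on an Illumina HiSeq 2500. DiMSum fitness is the error-weighted combination of wild-type-normalised replicate fold changes, kanamycin versus none.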

Sequence	self-splicing fitness (ln) (30 °C)	self-splicing fitness (ln) (37 °C)
AAUUAGCAAUAUUACGACGC	-1.08 ± 0.14	-0.792 ± 0.13
AAUUAGCAAUAUUACGAGAA	-2.65 ± 0.48	-1.05 ± 0.28
AAUUAGCAAUAUUACGAGAU	-2.7 ± 0.17	-2.16 ± 0.17
AAUUAGCAAUAUUACGAGCG	-1.1 ± 0.096	-0.749 ± 0.099
AAUUAGCAAUAUUACGAGCU	-1.02 ± 0.12	-0.169 ± 0.15
AAUUAGCAAUAUUACGAUCC	-0.705 ± 0.18	-0.148 ± 0.26
AAUUAGCAAUAUUACGAUCU	0.226 ± 0.09	0.704 ± 0.11
AAUUAGCAAUAUUACGCCUA	0.234 ± 0.13	0.297 ± 0.15
AAUUAGCAAUAUUACGCGGC	-2.28 ± 0.39	-1.32 ± 0.3
AAUUAGCAAUAUUACGCUAA	-2.5 ± 0.28	-2.27 ± 0.24
AAUUAGCAAUAUUACGCUGG	-1.35 ± 0.17	-1.01 ± 0.2
AAUUAGCAAUAUUACGCUUG	-0.701 ± 0.07	0.227 ± 0.095
AAUUAGCAAUAUUACGGACG	-1.29 ± 0.16	0.266 ± 0.12
AAUUAGCAAUAUUACGGAGU	-2.69 ± 0.2	-1.02 ± 0.17
AAUUAGCAAUAUUACGGAUG	-2.06 ± 0.12	-0.146 ± 0.15
AAUUAGCAAUAUUACGGUAC	-2.42 ± 0.16	-1.22 ± 0.2
AAUUAGCAAUAUUACGGUCA	0.31 ± 0.12	-0.629 ± 0.098
AAUUAGCAAUAUUACGGUGG	-2.7 ± 0.18	-1.96 ± 0.22
AAUUAGCAAUAUUACGUGAA	-2.4 ± 0.15	-1.22 ± 0.17
AAUUAGCAAUAUUACGUGCC	-1.48 ± 0.082	-0.857 ± 0.11
AAUUAGCAAUAUUACGUGCU	-2.18 ± 0.12	-1.33 ± 0.11
AAUUAGCAAUAUUACGUUUG	-3.16 ± 0.22	-2.9 ± 0.27
ACAAAGCAAUAUUACGAAUC	-2.69 ± 0.19	-1.66 ± 0.17
